Measured values: the supplement of paper PMC9732359
± gives the uncertainty stated by the source.

Assay: protein stability index of a GFP-peptide fusion (yeast GPS) (PSI 1-4); higher = more stable; sorted into four equal gates, so the index is relative within each strain
Settings: pdr5∆
In short: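 Each library plasmid carries Cherry plus GFP with a tiled 17-residue yeast protein peptide fused downstream, and the pooled library was carried in yeast. Mid-log cultures in leucine-free medium were sorted into four equal gates by GFP/Cherry ratio. Reads from Illumina sequencing of PCR-amplified plasmids from each gate were assigned to strains by barcodes. Per peptide, the protein stability index was computed as the summed products of gate read frequency and gate number.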

Going from CFICLLHLANEHGLQIT [BRN1] to CHLYSQRMHAIHEIDER [NNF1], the protein stability index falls from 2.81 ± 0.17 to 1.64 ± 0.065.

Compared with CIECQPKAMTDTDNECV [HRT1], CINKWIKTRDACPLDNQ [HRT1] is lower in protein stability index: 3.25 ± 0.093 for the first, 3.03 ± 0.079 for the second.

Going from CKRELAFVKQKNDSLEK [YIL149C/MLP2] to CLDRCKEQYNRYRDLMI [MTR3], the protein stability index falls from 3.33 ± 0.17 to 2.62 ± 0.046.

First: CNNINKGLKENDVAVEK [BRR2]
Second: CQLQNSDNSEEEEVDID [RRP43]
The protein stability index of the first is higher: 3.68 ± 0.18 for the first, 3.22 ± 0.065 for the second.

Going from CRELHNKHLTTLVEIFL [SSN3] to CRLFFTELASKDNAIYN [YCS4], the protein stability index falls from 2.03 ± 0.045 to 1.51 ± 0.055.

First: CYEKVLESINEGNQIIV [BRR2]
Second: DAAAEKRNGDEVYTLVD [ARP7]
The protein stability index of the first is lower: 2.59 ± 0.11 for the first, 3.35 ± 0.063 for the second.

Compared with DAFNMLSLTTVPCDRIE [SNF6], DAFRVHICGICGLMTVI [RPB2] is lower in protein stability index: 2.57 ± 0.064 for the first, 1.43 ± 0.095 for the second.

Going from DAGKLVYVTGGRNLGRI [RPS4A] to DAIWSLVFQLAKNFSAQ [SRB8], the protein stability index rises from 1.99 ± 0.12 to 2.56 ± 0.053.

First: DANPSSQIIARNEEILR [SMC2]
Second: DDALHAKKLPNGNWEVG [DIS3]
The protein stability index of the first is lower: 2.79 ± 0.083 for the first, 3.12 ± 0.083 for the second.

Going from DDDDEDDDEIVMPVPNV [SKP1] to DDDEVDYSEIQRSRRKF [DSN1], the protein stability index rises from 3.06 ± 0.099 to 3.66 ± 0.23.

Compared with DDEDDEHNPTIVGGLYY [AAR2], DDEDEDDSDNVMSSDDE [PRE10] is higher in protein stability index: 3.14 ± 0.079 for the first, 3.46 ± 0.12 for the second.

Going from DDENNPSHYPHPYEYEI [RRP6] to DDFFKELAKEAKKSTTI [ESC2], the protein stability index rises from 2.89 ± 0.063 to 3.09 ± 0.12.

Going from DDGDDEDLLECLDRCKE [MTR3] to DDLEKTLDKKDSIPLRI [RPN9], the protein stability index falls from 3.08 ± 0.084 to 2.3 ± 0.14.

First: DDMVEYEDGTPATTSQM [CYT1]
Second: DDNETENPNFWRQFGNR [GRR1]
The protein stability index of the first is lower: 2.76 ± 0.14 for the first, 3.23 ± 0.056 for the second.

DDTKNQDSMSKGTGEES [YGR119C/NUP57] and DDVKNILNAKYTKETYQ [RPN6] are within error of each other in protein stability index: 3.14 ± 0.16 for the first, 2.99 ± 0.066 for the second.

First: DDVYRPAAESKIFTPNL [SNF5]
Second: DEAKDFIVSGTASDQLF [PUP3]
The protein stability index of the first is higher: 3.09 ± 0.11 for the first, 2.83 ± 0.07 for the second.

First: DEDDDQPMISPDNSIFG [SWI3]
Second: DEDEDEDEDDDDDDDED [QCR6]
The protein stability index of the first is higher: 3.35 ± 0.083 for the first, 1.96 ± 0.036 for the second.

Going from DEEMAVLTRMDEDRSKK [SNF2] to DEKKDSDSSKPAFSFGT [YJL041W/NSP1], the protein stability index falls from 2.66 ± 0.083 to 2.49 ± 0.068.

Going from DELDAIGTKRFDSEKSG [RPT5] to DEMYELTDPMTVMFFYH [DIB1], the protein stability index rises from 1.66 ± 0.058 to 3.01 ± 0.11.

Going from DENKAGATSKPAFSFGA [YJL041W/NSP1] to DEVGRRSMLTVVRNMLA [YCG1], the protein stability index falls from 3.32 ± 0.068 to 2.09 ± 0.079.

Going from DFDESLKYLDDLKAQFQ [RPN9] to DFIGHNSNINTLTASPD [ASC1], the protein stability index falls from 3.17 ± 0.075 to 2.87 ± 0.052.

DFLGVASTGSGKTLAFV [PRP28] and DFPHLTPKLQTQLSYLI [YCS4] are within error of each other in protein stability index: 3.05 ± 0.22 for the first, 2.88 ± 0.045 for the second.

First: DFQIDGNIFELLSDTFE [RRI2]
Second: DFRTRYIDIRTNNVLRK [MTW1]
The protein stability index of the first is lower: 2.47 ± 0.077 for the first, 2.86 ± 0.21 for the second.

Going from DFTLIPRMASVFENYVK [CDC53] to DGHLRAPLKHGVGILYK [BRR2], the protein stability index falls from 2.88 ± 0.06 to 2.33 ± 0.08.

Compared with DGYQLFHAEPSGTFYRY [PUP2], DHKYVCTFSMEPYHFIS [SRB8] is higher in protein stability index: 1.6 ± 0.095 for the first, 2.03 ± 0.047 for the second.

Compared with DHQHILRKLKKMNNKPE [RPC53], DIDVTIVSKEYEKNFEA [ESC2] is higher in protein stability index: 1.7 ± 0.06 for the first, 3.06 ± 0.14 for the second.

First: DIEVPDVNALKFNNTQR [SNF12]
Second: DIFAVNLEESSKLDIYT [RET1]
The protein stability index of the first is higher: 3.29 ± 0.06 for the first, 2.78 ± 0.081 for the second.

Going from DIIQGNPLMYSGGNNTA [PCI8] to DIKDFADKVYTKENLEV [QCR2], the protein stability index rises from 3.13 ± 0.08 to 3.42 ± 0.11.

First: DIPGVRFKVVKVSGVSL [RPS23A]
Second: DIVSIDIEEPQLDLLDD [MTW1]
The protein stability index of the first is lower: 1.11 ± 0.1 for the first, 3.17 ± 0.097 for the second.

First: DIWRVAGKFELLDRILP [SNF2]
Second: DIYMHDVNSASKSESDS [RRP4]
The protein stability index of the first is lower: 2.65 ± 0.08 for the first, 3.48 ± 0.1 for the second.

First: DKARRLGYKAKQGFVIY [RPL15A]
Second: DKETQLKKRAVSGVELR [POP7]
The protein stability index of the first is higher: 3.33 ± 0.23 for the first, 2.57 ± 0.26 for the second.

DKILQLNDRFQTLSSHL [PGD1] and DKKLLRRLLNLYNDNNK [SWI1] are within error of each other in protein stability index: 2.66 ± 0.042 for the first, 2.62 ± 0.072 for the second.

Going from DKKQQTIDEQSQISPEK [RPN1] to DKKYKGLTTVWLLSALG [REC8], the protein stability index falls from 3.46 ± 0.11 to 2.38 ± 0.063.

Compared with DKLEKVTHDCYRVTLES [RPC34], DKLINDVTAIQTWSYLS [ECM29] is lower in protein stability index: 3.3 ± 0.06 for the first, 1.78 ± 0.04 for the second.

Going from DKLLDFIRYDVKTPKKT [CSN12] to DKQGWTPLFHALAEGHG [NAS6], the protein stability index falls from 2.64 ± 0.045 to 2.34 ± 0.098.

First: DKSTKTAEAPTLSFNFS [YOR098C/NUP1]
Second: DKTAVKLDTEVKNTNAN [SWP82]
The protein stability index of the first is higher: 3.29 ± 0.083 for the first, 2.83 ± 0.076 for the second.

First: DLAMANSLRRVMIAEIP [RPB3]
Second: DLCSLKPYVDRFAFSVI [DIS3]
The protein stability index of the first is lower: 1.36 ± 0.051 for the first, 1.87 ± 0.052 for the second.

DLEHKEDCVEEFFHLQH [QCR6] and DLENKFNRLKKQAHEKL [YIL149C/MLP2] are within error of each other in protein stability index: 2.75 ± 0.11 for the first, 2.71 ± 0.067 for the second.

DLETSLSQSSSYLETLT [MED2] and DLFGDSNKSNSTNESNK [SSN2] are within error of each other in protein stability index: 3.12 ± 0.11 for the first, 3.3 ± 0.08 for the second.

DLFSNNNYNSRIQLMND [MED1] and DLGITEKNDQNNDDDDN [MCD1] are within error of each other in protein stability index: 2.9 ± 0.25 for the first, 2.97 ± 0.14 for the second.

First: DLIKFSAETLSELIRTT [FAS1]
Second: DLKSLNVRDDMKPSDNI [SSN2]
The protein stability index of the first is lower: 2.29 ± 0.059 for the first, 2.59 ± 0.18 for the second.

First: DLLDMIQFGAKNMFEKK [ISW2]
Second: DLLILTRSIKEKWLLNQ [SRB6]
The protein stability index of the first is higher: 3.29 ± 0.24 for the first, 1.35 ± 0.19 for the second.

First: DLLNAASIESADILCPL [IRR1]
Second: DLQLLYVESDEDDTQIV [IRR1]
The protein stability index of the first is lower: 2.24 ± 0.13 for the first, 3.21 ± 0.14 for the second.

Compared with DLRIRIKLDIVVGQNQL [SNF5], DLSLLGYCDDIAAMVAQ [SIR2] is higher in protein stability index: 1.38 ± 0.086 for the first, 2.08 ± 0.043 for the second.

DLYEQIGIDPPRGVLLY [RPT3] and DMDGVDFNQAFEGTDDN [BRN1] are within error of each other in protein stability index: 3.02 ± 0.1 for the first, 3.04 ± 0.091 for the second.

Compared with DNDFIINDFKKIGRENE [POP5], DNDRFNVVGKLISIISS [YML103C/NUP188] is lower in protein stability index: 3.38 ± 0.072 for the first, 1.24 ± 0.073 for the second.

Going from DNEEWMNDVINTEEVNR [LIN1] to DNIDYAPMRLATAALEI [YJL039C/NUP192], the protein stability index falls from 3.46 ± 0.079 to 2.44 ± 0.041.

Going from DNKDKEGNAGGDQKTSE [YOR098C/NUP1] to DNNSKAEASFTFGTKHA [YLR335W/NUP2], the protein stability index falls from 3.6 ± 0.17 to 3.09 ± 0.076.

Compared with DNNSSLNVSNTKENGDF [PRP8], DNSNVMTVKLESITYQK [RGR1] is lower in protein stability index: 2.84 ± 0.084 for the first, 2.43 ± 0.1 for the second.

Going from DPFFAQSEDLSHAVEFF [YML103C/NUP188] to DPKRLFEGNALIRRLVR [RPS9A], the protein stability index rises from 3.17 ± 0.057 to 3.52 ± 0.28.

DPNEVEIKKLLATNSLV [DIS3] and DPNEVKYLYLRAVGGEV [RPL12A] are within error of each other in protein stability index: 1.82 ± 0.048 for the first, 1.89 ± 0.12 for the second.

DPNLELDQVGVPKSIAK [RPO21] and DPNLSFESSSSLPFLLR [SSN2] are within error of each other in protein stability index: 3.18 ± 0.14 for the first, 3.19 ± 0.13 for the second.
